Experimental data: the supplement of paper PMC10126150
± gives the standard deviation of the averaged measurements.

tested on: ATP; assay: switch fluorescence ratio, 500 uM ATP over buffer (Cy3 cluster intensity, sum of 5 cycles each) (fold (ratio)); higher = stronger signal-on switching upon ATP binding; sequences stand for … in TCGTCGGCAGCGTCAGATGTGTATAAGAGACAGTTTTTTTTTTTTTTTTTTTTTTTTT…TC; conditions: aptamer strand: ATP DNA aptamer (quencher-CACCTGGGGGAGTATTGCGGAGGAAGG + anchor), 100 nM annealed; ATP concentration: 500 uM
Method in brief: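 Switching-strand clusters labelled with Cy3 on a modified Illumina MiSeq flow-cell were annealed to 100 nM quencher-labelled ATP aptamer, imaged in selection buffer, and re-imaged after 15 min with 500 uM ATP at 22 °C. This was done over five cycles with NaOH stripping and re-annealing in between. The fluorescence ratio is summed target-cycle over summed buffer-cycle Cy3 intensity per cluster, averaged per switch-domain sequence, excluding clusters outside 100-1000 RFU.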
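Also: ATP exposure 15 min at 22 °C before imaging.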

Sequence	switch fluorescence ratio
TATGGGATGT	0.988 ± 0.016
TATGGGATTA	1.04 ± 0.064
TATGGGATTG	0.998 ± 0.021
TATGGGGCAA	1.091 ± 0.0015
TATGGGGGAT	1.03 ± 0.093
TATGGGGGGT	0.976 ± 0.017
TATGGGTAAT	0.975 ± 0.016
TATGGGTGGC	1.02 ± 0.11
TATGGTAGGG	0.9886 ± 0.0076
TATGGTCTGT	0.981 ± 0.042
TATGGTGGAG	0.981 ± 0.02
TATGGTGGTT	1.12 ± 0.12
TATGGTGTTT	1.02 ± 0.036
TATGTAAGGG	1.01 ± 0.026
TATGTACGCA	1.11 ± 0.018
TATGTACGTG	1.02 ± 0.053
TATGTACTAA	1.08 ± 0.023
TATGTCCGTA	1 ± 0.013
TATGTGAAAA	0.9747 ± 0.006
TATGTGACTT	1.03 ± 0.0074
TATGTGAGTT	1.001 ± 0.0099
TATGTGGGGT	0.992 ± 0.026
TATGTTAGGA	1.0104 ± 0.00038
TATGTTATTT	1.02 ± 0.012
TATGTTCCAA	1.01 ± 0.03

Sequence	switch fluorescence ratio
TATGTTGGTG	0.987 ± 0.018
TATGTTGTAC	1.052 ± 0.0086
TATGTTGTAT	0.984 ± 0.053
TATGTTTCAA	1.017 ± 0.0089
TATGTTTCTA	1.0004 ± 0.00054
TATGTTTTTC	0.9687 ± 0.0014
TATTAAAAGA	0.99 ± 0.03
TATTAAAGGG	0.985 ± 0.017
TATTAAATTT	1.031 ± 0.0051
TATTAACTAG	1.02 ± 0.0022
TATTAAGAAA	0.962 ± 0.016
TATTAAGG	1.01 ± 0.011
TATTAAGGA	0.9762 ± 0.009
TATTAAGTAG	1.03 ± 0.038
TATTAATAA	1 ± 0.0029
TATTAATGTT	0.997 ± 0.019
TATTAATTAT	1.01 ± 0.022
TATTACAAT	1.03 ± 0.052
TATTACCTTA	1.03 ± 0.044
TATTACGAAA	1.1 ± 0.032
TATTACTCGT	1.01 ± 0.07
TATTACTTAG	1.062 ± 0.01
TATTACTTGC	1.03 ± 0.042
TATTAGGGAT	0.9951 ± 0.0058
TATTAGGGGG	0.984 ± 0.048

Sequence	switch fluorescence ratio
TATTAGGGTG	1.05 ± 0.098
TATTAGGTAT	0.961 ± 0.018
TATTAGGTCT	0.991 ± 0.045
TATTAGTGAT	0.9869 ± 0.0055
TATTATATGG	1.03 ± 0.027
TATTATCGTA	0.9927 ± 0.0081
TATTATGCGG	0.984 ± 0.017
TATTATTGCG	0.988 ± 0.011
TATTCGCCCA	1.11 ± 0.2
TATTCGGATT	0.984 ± 0.03
TATTCGGGGG	1.04 ± 0.078
TATTCGTGGG	0.956 ± 0.048
TATTCGTTCT	0.9985 ± 0.0022
TATTCTCATC	1.013 ± 0.0027
TATTCTGGTT	1.02 ± 0.05
TATTCTTTGA	1.02 ± 0.03
TATTGAATTC	1.01 ± 0.016
TATTGACTTT	1.28 ± 0.35
TATTGAGTTA	1.01 ± 0.033
TATTGCTCAC	1.04 ± 0.02
TATTGGAGTG	0.966 ± 0.084
TATTGGGGCG	0.982 ± 0.017
TATTGGGGTT	0.996 ± 0.04
TATTGGGTAT	1.03 ± 0.038
TATTGGTAGG	0.941 ± 0.019

Sequence	switch fluorescence ratio
TATTGGTCGT	0.968 ± 0.042
TATTGGTTCA	0.996 ± 0.018
TATTGGTTTG	1.04 ± 0.045
TATTGTGCTT	0.982 ± 0.035
TATTGTGTTT	0.9781 ± 0.0039
TATTGTTCGC	0.98 ± 0.046
TATTGTTTTT	1.01 ± 0.022
TATTTAAAAT	0.995 ± 0.046
TATTTAAACG	1 ± 0.011
TATTTAGTAG	1.006 ± 0.0072
TATTTAGTTG	1 ± 0.024
TATTTATAAA	0.998 ± 0.025
TATTTATTAG	0.991 ± 0.029
TATTTCAGTC	1.01 ± 0.02
TATTTCGAAT	1.11 ± 0.18
TATTTCGTTG	0.998 ± 0.059
TATTTGAATG	1.01 ± 0.028
TATTTGAGTT	0.96526 ± 0.00075
TATTTGATGT	0.991 ± 0.029
TATTTGGAAA	0.991 ± 0.036
TATTTGGACG	1.05 ± 0.068
TATTTGGAGT	1.012 ± 0.0022
TATTTGGGCA	1.01 ± 0.041
TATTTGGTGA	0.993 ± 0.025
TATTTGGTGG	1.02 ± 0.027
